Measurements as given in patent US20240218057A1 (ROCKEFELLER UNIVERSITY, published 2024).

B1: C927 (antibody, V domains shown)
VH: QVQLVESGGGVVQPGRSLRLSCVASGFTFSYFDMHWVRQAPGKGLEWVALISHDGSTTFYGDSARGRFTISRDNSRNTLDLQMNSLRPEDTAVYFCAKPVDAAMFDFWGQGTLVTVS
VL: SYELTQPPSVSVAPGKTARITCGGNNIGSKSVHWYQQRPGQAPVLVIYYDSDRPSGIPERFSGSNSGNTATLTISRVEAGDEADFYCQVWDRSTNHLVVFGGGTQLTVL
B2: C924 (antibody, V domains shown)
VH: QVQLVESGGGVVQPGRSLRLSCAASGFTFSSYGMHWVRQAPGKGLEWVAVISDDGSNKYYADSVKGRFTISRDNSKNTLYLQMNSLRAEDTAVYYCAKSWWLSENWFDPWGQGTLVTVSS
VL: EIVMTQSPATLSVSPGERATLSCRASQSVSSNLAWYQQKPGQAPRLLIYGASTRATGIPARFSGTGSGTEFTLTISSLQSEDFAVYYCQQYNNWPLTFGGGTKVEIK
B3: C925 (antibody, V domains shown)
VH: QVQLVESGGGVVQPGRSLRLSCAASGFTFSNYGLHWVRQAPGKGLEWVAVTSDDGNRKYYADSVKGRFTISRDDSKNTLYLQMNNLRTEDTAVYYCAKSWWLSENWFDPWGQGTLVTVSS
VL: EIVMTQSPATLSVSPGERATLSCRASQSVRSNLAWYQQRPGQAPRLLIYGAFTRATGIPARFSVSGSGTEFTLTIDSLQSEDFAVYYCQQYNNWPLTFGGGTKVEIK
B4: C951 (antibody, V domains shown)
VH: QVQLQESGPRLVKPSGTLSLTCAVSGGSISTTNWWSWVRQPPGKGLEWIGEIHHSGNTNYNPSLKSRVTISVDRSKNQFSLKLSSVTAADTAVYFCARDGGRPGDPFDIWGQGTMVTVSS
VL: QSALTQPASVSGSPGQSITISCTGTSSDVGGYNYVSWYQQHPGKAPNLMIYDVSDRPSGVSNRFSGSKSGNTASLTISGLQAEDEADYYCNSFTSNSTRVFGTGTKVTV
B5: C943 (antibody, V domains shown)
VH: QVQLVESGGGVVQPGRSLRLSCAASGFPFSSFGMHWVRQAPGRGLEWVALILYDGDNKYYADSVKGRFTISRDNSKNTLYLQMNSLRAEDTAVYYCAKDIGGGSSPPFFDYWGQGTLVTVSS
VL: SYELTQAPSVSLAPGKTARITCGENNIGSKSVHWYQQKPGQAPVLVIYYDSDRPSGIPERFSGSNSGNTATLTISRVEAGDEADYYCQVWDSSSDHVMFGGGTKLTVL
B6: C938 (antibody, V domains shown)
VH: QVQLVESGGGVVQPGRSLRLSCAASGFTFRSHAMHWVRQAPGKGLEWVAIISSDGFNKYYADSVKGRFTISRDNSKNTLYVHMNSLRVEDTAIYYCASGLLWFETREISGAPDYGMAVWGQGATVTVSS
VL: DIQMTQSPSSLSASVGDRVTITCRASQNISNFLNWYQQKPGKAPKLLIYAASSLQSGVPSRYSGSGSGTDFTLTISSLQAEDFATYYCQQSYSTPLTFGGGTKVEIK
B7: C913 (antibody, V domains shown)
VH: EVQLVESGGVVVQPGGSLRLSCAASGFTFDDYSMHWVRQVPGKGLEWIAVIFWDGTSTYYADSVKGRFTISRDNSKKSLYLQMNSLRSEDTALYYCAKDSEDCSSTSCYVDHWGQGTLVTVSS
VL: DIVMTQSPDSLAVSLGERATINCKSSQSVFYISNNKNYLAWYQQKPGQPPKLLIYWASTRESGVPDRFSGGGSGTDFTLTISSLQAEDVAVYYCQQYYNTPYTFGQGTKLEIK
B8: C935 (antibody, V domains shown)
VH: QVQLVESGGGVVQPGRSLRLSCAATGFTFSSYGMHWVRQAPGKGLEWVALIWYDGSNQYYVDSVKGRFTISRDNSKKTLYLQMNSLRVEDTAVYYCARDFSNSDMVTLSDAFDIWGQGTMVTVSS
VL: DIQLTQSPSFLSASVGDRVTIACRASQGISSYSSYLAWYQQKPGKAPKLLIYAASTLQSGVPSRFSGSGSGTEFTLTISSLQPEDFATYYCQQLNSYPLFTFGPGTKVDIK
B9: C941 (antibody, V domains shown)
VH: QVQLVQSGAEVKKPGSSVKVSCKASGGTSRSYPISWVRQAPGQGLEWMGRIIPIVGTANYAQRFQGRVTITADESTGTAYMELSSLRSEDTAVYYCARNRGYSDYGSVYYFDYWGQGTLVTVSS
VL: QSVLTQPPSVSGAPGQRVTISCTGSSSNIGAGYDVHWYQQLPGAAPKLLIYRNINRPSGVPDRFSGSKSGTSASLAITGLQADDEADYYCQSYDSSLSGSVFGGGTKLTV
B10: C939 (antibody, V domains shown)
VH: QVQLVESGGGVVQPGRSLRLSCAASGFTFSSYAMHWVRQAPGKGLESVALISHDGSNKYHADSVKGRLTISRDTSKNTLYLQMDSLRPEDTAVYYCASGLLWFETAGGSGAPDYGMAVWGQGTTVTVSS
VL: DIQMTQSPSSLSASVGDRVTITCRASQSISTYLNWYQQKPGRAPKFLIYAASSLQSGVPSRFSGSGSGTDFTLIISGLQPEDFATYFCQQSYNTPLTFGGGTKVEIK
B11: C926 (antibody, V domains shown)
VH: QVQLVESGGGVVQPGRSLRLSCAASGFGLITYSMHWVRQAPGKGLEWVGLISFDGNTTYYADSVRGRFTISRDNLANILYLQMNSLRPDDTALYYCARDKRGVIRGLLNFWGQGSLVTVSS
VL: DIVMTQSPDSLAVSLGERATINCKSSQSLLPSSNSNNYLAWYQQKSGQPPNLLIYWASTRESGVPDRFSGSGSETDFSLTISNLQAEDVAVYYCQQYYNTPHTFGGGTKVEI
B12: C922 (antibody, V domains shown)
VH: QVQLVESGGGLVKPGGSLRLSCAGSGFTFTDYYMAWIRQAPGKGLEWVSYISTSDRFINYADSVKGRFTISRDDAKNSLYLQMNSLRAEDTAVYYCARDGGGYDRFDHWGQGTLVTVSS
VL: DIQMTQSPSSLSASVGDRVTITCQASQDISNLLNWYQQKAGKAPKLLIYDASNLETGVPSRFSGSGSGTDFTFTISSLQPEDIATYYCLQYDNLPLTFGQGTKLEIK
B13: C923 (antibody, V domains shown)
VH: QVQLVESGGGLVKPGGSLRLSCAASGFTFSDYHMTWIRQAPGKGLEWVSYISNRSTYRNYADSVKGRFTISRDNAKNSLYLQMNSLRAEDTAVYYCARDGGAYDRFDYWGQGTLVTVSS
VL: DIQMTQSPSSLSASVGDRVTITCQASQDIKKFLNWYQQKPGKAPKLLIYDASNLETGVPSRFSGSGSGTDLTFTISSLQPEDIATYYCQQYDNLPLTFGQGTKLEIK
B14: C934 (antibody, V domains shown)
VH: QVQLVQSGAEVKKPGASVKVSCKASGYTFTDYYIHWVRQAPGQGLEWMGWINPNSGGTNYAQKFQGRVTMTRDTSISTAYMDLSRLRSDDTAVYYCARDVIITMGRGVVFRMDVWGQGTTVTVSS
VL: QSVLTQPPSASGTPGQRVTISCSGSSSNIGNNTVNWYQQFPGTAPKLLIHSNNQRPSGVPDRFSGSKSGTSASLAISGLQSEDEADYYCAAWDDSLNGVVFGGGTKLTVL
B15: C928 (antibody, V domains shown)
VH: QVQLVESGGGVVQPGRSLRLSCAASGFTFSFFDMHWVRQAPGKGLEWVADISYDGSNQYYGDSVKGRFTISRDNSKSTLYLQMNSLRAEDTAVYYCAKPVDTAMFDSWGQGTLVTVSS
VL: SYELTQPPSVSVAPGETARITCGGNNIGHKSVHWYQQQPGQAPVLVIYYDSERPSGIPERFSGSNSGNTATLTISRVEAGDEADYHCQVWDGGNDHLVIFGGGTKLTVL
B16: C932 (antibody, V domains shown)
VH: QVQLVESGGSVVQPGKSLRLSCAGSGFAFSTYGMHWVRQAPGKGLEWVAVISSDGGNKYYADSVKGRFTISRDNYENTLYLQMNSLGAEDTAVYYCAKVALRGVFISLYYGMDVWGQGTTVTVSS
VL: SYELTQPPSVSVTPGQTASITCSGDKLGDKYACWFLQKPGQSPLLVIYQDTKRPSGIPDRLSGSKSGNTATLTISGTQAMDEADYYCQTWDSSAVVFGGGTKLTV
B17: C940 (antibody, V domains shown)
VH: QVQLQESGSGLVKPSQTLSLTCAVSGGSASSGGYSWSWIRQPPGKGLEWIGYIYHSGSTYYNPSLKSRVTISLDRTKKQFSLKLSSVTAADTAVYYCARFCLSGSHYLFAFDIWGPGTMVTVSS
VL: QSALTQPASVSGSPGQSITISCTATSSDVGGYNFVSWYQQYPGKVPKLLIYDVGNRPSGVSNRFSGSKSGNTASLTISGLQAEDEADYYCSSYTNSSTFFGGGTKLTVL
B18: C944 (antibody, V domains shown)
VH: QVQLVESGGGVVQPGRSLRLSCAASGFTFSSYGMHWVRQAPGKGLEWVAVISYDGSYKYYADSVKGRFTISRDNSKNTLYLQMNSLRAEDTAVYYCAKGSGSQLYYYYGMDVWGQGTTVTVSS
VL: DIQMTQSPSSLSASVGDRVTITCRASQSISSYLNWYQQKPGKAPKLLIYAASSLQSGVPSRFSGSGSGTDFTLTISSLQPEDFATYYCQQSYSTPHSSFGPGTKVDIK
B19: C929 (antibody, V domains shown)
VH: EVQLVESGGGLIQPGGSLRLSCAASGFTVSSNYMTWVRQAPGKGLEWVSVIYSGGTTYYADSVKGRFTISRDNSKNTLYLQMNSLRAEDTAVYYCARDLVVWGMDVWGQGTTVTVSS
VL: DIQLTQSPSFLSASVGDRVTITCRASQGISSYLAWYQQKPGKAPKLLIYAASTLQSGVPSRFSGSGSGTEFTLTISSLQPEDFATYYCQLLNSYPYTFGQGTKLEIK
B20: C936 (antibody, V domains shown)
VH: EVQLVESGGGLIQPGGSLRLSCAASGFTVSSNYMSWVRQAPGKGLEWVSVIYSGGSTFYADSVKGRFTISRDNSKNTLYLQMNSLRAEDTAVYYCARDLGTGLFDYWGQGTLVTVSS
VL: DIQLTQSPSFLSASVGDRVTITCRASQGISSYLAWYQQKPGKAPKLLIYAASTLQSGVPSRFSGSGSGTEFTLTISSLQPEDFATYYCQQLDSYPPGTFGPGTKVDIK
B21: C937 (antibody, V domains shown)
VH: EVQLVESGGGLIQPGGSLRLSCAASELTVSSNYMSWVRQAPGKGLEWVSVIYPGGSTFYADSVKGRFTISRDNSKNTLYLQMNSLRAEDTAVYYCARDLGTGLFDYWGQGTLVTVSS
VL: DIQLTQSPSFLSASVGDRVTITCRASQGISSYLAWYQQKPGKAPKLLIYAASTLQSGVPSRFSGSGSGTEFTLTISSLQPEDFATYFCQLLNSNPPGTFGPGTKVDIK
B22: C930 (antibody, V domains shown)
VH: EVQLVESGGGLFQPGGSLRLACAASGITVSSNYMSWVRQPPGKGLEWVSVIYAGGSTFYADSVKGRLTISRDNSKNTLYLQINSLRAEDTAVYYCARDLVVWGMDVWGQGTTVTVSS
VL: DIQLTQSPSFLSASVGDRVTITCRASQGISSYLAWYQQKPGKAPKLLIYAASTLQSGVPSRFSGSGSGTEFTLTISSLQPEDFATYYCQQLNTYPYTFGQGTKLEIK
B23: C942 (antibody, V domains shown)
VH: QVQLVESGGGVVQPGRSLRLSCAASGFTFSSYVMHWVRQAPGKGLEWVAIISSDGNTKYYADSVKGRFTISRDNSKNTLYLQMNSVRTDDTAVYYCARDGTTMTPTDLLTDWGQGTLVTVSS
VL: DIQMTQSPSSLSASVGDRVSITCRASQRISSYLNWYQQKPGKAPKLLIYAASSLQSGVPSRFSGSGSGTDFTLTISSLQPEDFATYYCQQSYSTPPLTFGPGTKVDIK
B24: C931 (antibody, V domains shown)
VH: QVQLVESGGGVVQPGRSLRLSCAASGFSFSTYGMHWVRQAPGKGLEWVAVISFDGSQKYYGDSVKGRFTISRDNPKNTLDLQMNSLRAEDTAVYYCAKVVVRGVIISLYYGMDVWGQGTTVTVSS
VL: not shown

The binders below were run against T1, SARS-COV-2 RBD (SARS-COV-2, UniProt P0DTC2 319-539) (assay: ELISA, RBD coated on plate).
T1 construct: also called WT RBD

Going from B1 to B2, the EC50 falls from 3.77 ng/mL to 2.5 ng/mL (1.5-fold).

Compared with B3, B4 is 2.8-fold lower in EC50: 2.26 ng/mL for the first, 0.81 ng/mL for the second.

B5 and B6 are within 1.5-fold of each other in EC50: 2.59 ng/mL for the first, 2.63 ng/mL for the second.

B7 and B8 are within 1.5-fold of each other in EC50: 2.58 ng/mL for the first, 2.86 ng/mL for the second.

First: B9
Second: B10
The EC50 of the first is 1.9-fold lower: 1.92 ng/mL for the first, 3.62 ng/mL for the second.

Compared with B11, B12 is 2-fold lower in EC50: 4.72 ng/mL for the first, 2.42 ng/mL for the second.

First: B13
Second: B14
The EC50 of the first is 2.1-fold higher: 1.95 ng/mL for the first, 0.95 ng/mL for the second.

B15 and B16 are within 1.5-fold of each other in EC50: 4.14 ng/mL for the first, 3.57 ng/mL for the second.

B17 and B18 are within 1.5-fold of each other in EC50: 1.8 ng/mL for the first, 1.71 ng/mL for the second.

B19 and B20 are within 1.5-fold of each other in EC50: 2.07 ng/mL for the first, 1.56 ng/mL for the second.

B21 and B22 are within 1.5-fold of each other in EC50: 0.97 ng/mL for the first, 1.24 ng/mL for the second.

B23 and B24 are within 1.5-fold of each other in EC50: 2.13 ng/mL for the first, 2.57 ng/mL for the second.
